Test results published in patent US20030157108A1.
Several values for one entry are separate records, joined by “and”; a condition that tells them apart may be missing. Equal values may be shown once.

Tests used:
[1] = target: human FcγRIIIA(F158) (human) (UniProt P08637); assay: ELISA, E27 hexamers (E27:IgE complexes) at 0.12 µg/ml (by text and FIG. 12; footnote letters shifted); standard = HEK293
[2] = target: human FcγRIIIA(V158) (human) (UniProt P08637); assay: ELISA, E27 hexamers (E27:IgE complexes) at 0.12 µg/ml (by text and FIG. 13; footnote letters shifted); standard = HEK293
Chain of human FcγRIIIA(V158) (human) (P08637 17-208 F176V limits assumed): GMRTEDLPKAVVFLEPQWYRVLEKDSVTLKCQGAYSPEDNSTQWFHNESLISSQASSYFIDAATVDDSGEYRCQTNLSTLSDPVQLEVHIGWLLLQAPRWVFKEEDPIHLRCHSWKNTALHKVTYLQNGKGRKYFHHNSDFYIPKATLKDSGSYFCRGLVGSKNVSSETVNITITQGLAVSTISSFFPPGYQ

[3] = target: human FcγRIIIA(Phe158) full-length α-chain co-expressed with γ-chain on CHO cells (human) (UniProt P08637); assay: cell-based assay, Hu4D5 monomers on CHO cells transfected with FcγRIIIA α-chain and γ-chain (by text and FIG. 28; footnote letters shifted); standard = CHO-S
Chain of human FcγRIIIA(Phe158) full-length α-chain co-expressed with γ-chain on CHO cells (human) (P08637 17-254, chain 1 of 2): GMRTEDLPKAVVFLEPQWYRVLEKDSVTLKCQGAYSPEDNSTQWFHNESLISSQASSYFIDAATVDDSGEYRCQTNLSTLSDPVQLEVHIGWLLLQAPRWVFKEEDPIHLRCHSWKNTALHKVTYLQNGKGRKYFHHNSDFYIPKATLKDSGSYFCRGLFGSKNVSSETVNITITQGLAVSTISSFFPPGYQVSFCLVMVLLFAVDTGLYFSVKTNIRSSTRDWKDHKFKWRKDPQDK
Chain of human FcγRIIIA(Phe158) full-length α-chain co-expressed with γ-chain on CHO cells (human) (P30273 19-86, chain 2 of 2, further chain): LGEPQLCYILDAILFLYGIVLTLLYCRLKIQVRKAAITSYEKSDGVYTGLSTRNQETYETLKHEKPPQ

[4] = target: human FcγRIIIA(V158) (human) (UniProt P08637); assay: ELISA, Hu4D5 dimers; Table 2 prints 23.1 for the average
[5] = target: human FcγRIIIA(V158) (human) (UniProt P08637); assay: ELISA, Hu4D5 dimers at 1.11 µg/ml; standard = CHO-S
[6] = target: human FcγRIIIA(F158) (human) (UniProt P08637); assay: as above
[7] = target: human FcγRIIIA(V158) (human) (UniProt P08637); assay: ELISA, Hu4D5 dimers at 1.11 µg/ml; standard = CHO-S; average of lots
[8] = target: human FcγRIIIA(F158) (human) (UniProt P08637); assay: as above
[9] = target: human FcγRIIIA(Phe158) full-length α-chain co-expressed with γ-chain on CHO cells (human) (UniProt P08637); assay: cell-based assay, Hu4D5 monomers on CHO cells transfected with FcγRIIIA α-chain and γ-chain (by text and FIG. 28; footnote letters shifted); standard = CHO-S; average of lots
[10] = target: human FcγRIIIA(F158) (human) (UniProt P08637); assay: ELISA, E27 dimers at 0.12 µg/ml (by text and FIG. 11; footnote letters shifted); standard = HEK293
[11] = target: human FcγRIIIA(V158) (human) (UniProt P08637); assay: ELISA, E27 dimers at 0.12 µg/ml (by text and FIG. 10; footnote letters shifted); standard = HEK293

Chain of human FcγRIIIA(F158) (human) (P08637 17-208 limits assumed): as the sequence (P08637 17-208 F176V limits assumed) above, with V160F counted along it

Substance	ratio A(variant)/A(standard) at A490nm [1]	ratio A(variant)/A(standard) at A490nm [6]	ratio A(variant)/A(standard) at A490nm [10]	ratio A(variant)/A(standard) at A490nm [11]	other results
E27 with S298A/E333A/K334A substitutions in the Fc region, expressed in HEK293 cells (antibody)	1.87	–	–	–	ratio A(variant)/A(standard) at A490nm [2]: 1.15
Hu4D5 with S298A/E333A/K334A substitutions in the Fc region, expressed in Lec13 cells (fucose-deficient) (antibody)	–	32.8 and 32.9 and 34.8	–	–	ratio variant/standard [3]: 26.8 and 25.9; fold improvement in binding [4]: 21 fold; ratio A(variant)/A(standard) at A490nm [5]: 25.4 and 23.8 and 22.5; ratio A(variant)/A(standard) at A490nm [7]: 23.1; ratio A(variant)/A(standard) at A490nm [8]: 33.5; ratio variant/standard [9]: 26.4
anti-IgE antibody E27 expressed in Lec13 cells (fucose-deficient)	1.92	–	7.63	6.44	–
anti-IgE antibody E27 expressed in CHO-DP12 cells on plates (CHO-P)	0.65	–	0.35	0.32	–
Hu4D5 with S298A/E333A/K334A substitutions in the Fc region, expressed in HEK293 cells (antibody)	–	20.8	–	–	–
